This note sets out measurements from US8227408B2, “Leptin as an anti-amyloidogenic biologic and methods for delaying the onset and reducing Alzheimer's disease-like pathology” (Neurotez, Inc., priority 2005, dated 2012).

The test system of this assay is BACE. The experiment in a line: BACE activity, APP and flotillin in sucrose gradient fractions of treated SY5Y cells (fluorescence quenching assay). In kind it is cell-based, human. The procedure: In panel (a), Neuro2a cells stably transfected with hyg-sa134 were treated for about 2 h or about 5 h with about 100 ng/ml leptin, Ob (black); about 125 mg/ml cyclodextrin, CDX (striped gray); about 5 mg/ml cholesterol, Ch (pale gray); and leptin plus cholesterol, Ob+Ch (medium gray). Media were collected and assayed for total Aβ by ELISAs (Figueiredo-Pereira et al., J Neurochem. 72:1417-22 (1999)). […] Water soluble cholesterol (Sigma-Aldrich, Mo.) is a solution made of cholesterol balanced with CDX (40 mg cholesterol per gr CDX). […] Extracts prepared from harvested cells were analysed by SDS-PAGE and Western blotting using an antibody directed against the C-terminal fraction of APP (C-APP, lanes 1-4) or actin (top lanes 5-8) or full-length APP (bottom lanes 5-8). […] Fractions collected from the bottom of the gradient were analysed by SDS-PAGE and Western blotting for the detection of APP and flotillin (marker for lipid rafts). […] In panel (e), fractions collected as above were assayed for β-secretase activity using a fluorescence-quenching assay (QTL Biosystems, NM). The results are expressed as the percent distribution of BACE activity within the gradient derived from cell cultures in the absence (black) or presence (gray) of leptin in the medium. […]

B1: Leptin: peptide hormone controlling adaptive metabolic mechanisms to energy availability; leptin (Harbor-UCLA) in vitro, recombinant murine leptin in mice (protein, UniProt P41160 22-167, looked up)
Leptin: VPIQKVQDDTKTLIKTIVTRINDISHTQSVSAKQRVTGLDFIPGLHPILSLSKMDQTLAVYQQVLTSLPSQNVLQIANDLENLRDLLHLLAFSKSCSLPQTSGLQKPESLDGVLEASLYSTEVVALSRLQGSLQDILQQLDVSPEC
As for B1, the “activity of BACE in the low density fractions” value (about 400 ng/ml leptin, about 5 h, sucrose gradient fractions) is recorded as “almost absent”. Further, the “flotillin migration / elution position on sucrose gradient” value (compared to controls) is “migrated at heavier subcellular fractions”.
